Results: patent US20120316071A1 (published 2012)

How the values were obtained:
[1] = target: T1, Recombinant Human DLL4 (delta-like protein 4) (human, UniProt Q9NR61 27-529); test: ELISA on coated DLL4, 100 nM Fab
T1 construct: Bought recombinant human DLL4 (R&D Systems Cat#1506-D4/CF), coated on the plate; also called rHuman DLL4; Delta-like 4

[2] = target: T1, Recombinant Human DLL4 (delta-like …); test: 96-well plate ECL (MSD) binding assay on coated DLL4, 10 nM Fab

B1: Fab VH1-46_IGHD6-6*01_IGHJ1*01 S102A/S103P/S104F/H111F/I51S/N52L/S54T/G56H (APFF SLTH) & L6_IGKJ1*01 (Fab, V domains shown)
VH: QVQLVQSGAEVKKPGASVKVSCKASGYTFTSYYMHWVRQAPGQGLEWMGISLPTGHSTSYAQKFQGRVTMTRDTSTSTVYMELSSLRSEDTAVYYCAREEYAPFSAEYFQFWGQGTLVTVSS
VL: not shown
notes: Fab made in E. coli; CH1 with tags and kappa CL are not included
ELISA signal [1]: 0.786 | ECL signal [2]: 135000
